# In the supplement of paper PMC9170038:
# How the values were obtained:
# [1] = system: K4 kissing-loop RNA reporter; experiment: apparent KD of K4 kissing-loop reporter; higher = weaker reporter binding; details: Eterna round: R107;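 further: bound reporter read as fluorescence of individual clusters on recovered sequencing chips by microscopy, with normalized cluster intensities fitted with a binding model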
# Experimental: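 RNA-MaP round R107: designed RNA switches with theophylline, tryptophan, arginine or FMN aptamers are transcribed on-chip within common flanks. They are titrated with a labelled K4 kissing-loop RNA reporter in RNA-MaP buffer (100 mM Tris pH 7.5, 80 mM KCl, 4 mM MgCl2), without ligand or with the indicated ligand. Median apparent KD per design.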
# MS2 coat protein = experiment: apparent KD of MS2 coat protein; designed switch direction (-1 OFF switch, 1 ON switch): -1; higher = weaker reporter binding
# Summary of the method: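 Apparent KD, taken as the median over clusters for each design, was obtained by curve-fitting normalised cluster fluorescence. Designed RNA switches had been transcribed on Illumina chips by stalled E. coli RNA polymerase and titrated with SNAP-549-labelled MS2 coat protein, doubling from 0.7 or 1.5 nM to 3 µM.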
# [2] = input ligand: theophylline 20 uM
# [3] = input ligand: tryptophan 2.4 mM
# [4] = Eterna round: R95, input ligand: microRNA oligo, concentration not stated
# [5] = input ligand: microRNA oligo, concentration not stated
Sequence,apparent KD of K4 kissing-loop reporter ([1]; input ligand: FMN 200 uM),apparent KD of K4 kissing-loop reporter ([1]; input ligand: arginine 13.2 mM),apparent KD of K4 kissing-loop reporter ([1]; input ligand: none),"apparent KD of K4 kissing-loop reporter [1, 2]","apparent KD of K4 kissing-loop reporter [1, 3]",other results
UCAUGUGCCAGUGAUGUUGGCGUACGUGAUACCAGACGAAUAAAAGUCCCUUGGCAGCACAAAUAAGCCAAGAUAGAUGAAUGAU [Exclusion Theophylline A GF 1],130 nM,125 nM,132 nM,137 nM,116 nM,
AGAUGGAAUAGAAGGAGCGGCGCCAGUGAUGUUGGAUGCCGCGGGUGAAUCAGAUCAUAGUGCCAGGUAGGUCGCUAUUUCAGCG [Anedin],113 nM,101 nM,106 nM,116 nM,112 nM,
UGACUGGAUGGAAGGAGCGCUAAACUCCUAGUGAUGUUAGGGAAAUGAGACAAAGUCUCAAGGCAGGUAGGUCGCCAUCUAGUCU [FiskerMod 16 - Jieux - Same State - Arginine B],142 nM,78.6 nM,174 nM,506 nM,177 nM,
GUAUCGCUAGGAGGAUAUUUCAAAUAACCAAUAAAUGGUUAUACGGAGUGAUGUUCCGAUUUACGGAAAGAAGGCCUAGUGAUAC [FMN B 5],137 nM,276 nM,302 nM,319 nM,290 nM,
AGGACGGUUAUGGAUACCAGUCCGGAACUUGUCCAUGGAGUGAUGUUCCGUCCAGCUCCGGACCCUUGGCAGCCAGACUGCUGAA [theeternabot_sameState_KL_Theo_B_41],185 nM,189 nM,192 nM,138 nM,198 nM,
AUUUUUUUGUCAGGAUAUUAGUAUGGUUUUGGUUUGUUAGUGAUGUUGAUAUUUUGUUUAUGUAUUUAAGAAGGGAUUUAGCGGU [gyhhgumullin],404 nM,290 nM,356 nM,447 nM,320 nM,
GUGGCGACGCAAGGAUAUGGGUGCUAGUGAUGUUAGCCUUUGCUCCAUGUCACGUGGUCUGCACACCCAGAAGGUGCGGGAAGAU [theeternabot_exclusion_KL_FMN_B_9],482 nM,293 nM,327 nM,307 nM,354 nM,
AGUCCACUCUAAAGAGUGGACCUAAGGGAUACCAGUGAUGUUGGUCACCCUUGGCAGCCCGCUGUCAUCGAUAAAGAUGGCAGUA,125 nM,107 nM,112 nM,121 nM,117 nM,
AAUUUAUAUUUAUUCUUUAAUUGUUCAGAAGGAGCGUGAAUUAUCACAGGUAGGUCGCUGAGCUAGUGAUGUUAGCUAUAUACUA [JR_ExcArginiA_Sub008],65.5 nM,105 nM,62.8 nM,82.8 nM,58.4 nM,
GGAGUUACCUGGGAUACCAGUCGGAGUCCCAGAGCUCAGAGUGAUGUUCUGGGAUGUUUCGGCCCUUGGCAGCUCUGGGACUCCC [#2 Exclusion - Theophylline B Attempt #12 (HarryS)],535 nM,509 nM,637 nM,599 nM,466 nM,
AGACUACUGAUAGGAUAUAACAUCCUAGUCGUAUACCGAAAGGUAUACGAUUUCCUUCUAGUGAUGUUAGAAGGGUCGGUAGUCA [Omei KL FMN B Exc B v11],106 nM,82.4 nM,89.1 nM,81.1 nM,89.1 nM,
UUUGGAGUGGGAGGAUAUCCUAAUAUGGGUGAUGUUAGCGAUGUUGAAGGUGUAGUGAUGUUAUGCGGAGAAGGCCCACUGUAGA [BDazzled - #19 - Exc. FMN B],95 nM,78.8 nM,131 nM,85.6 nM,89.2 nM,
GUACGCUCUCGAGUGAUGUUCGAUAAUCGCGAGGAUAUCGCUUUUGCGAGAAGGCGCGGAAUGAGGAAACUCGUUCUGAGUGUAC [FMN A 24],603 nM,390 nM,1060 nM,673 nM,841 nM,
AGCUCAGAGUGACUCGAUAAGAGUCACAAACGAGGACCGGUACGGCCGCCACUCGAAAUAAGGAGAGUGAUGUUCUCGCUGAGCA [FiskerMod 8 - Jieux - Same State Tryptophan A],454 nM,81.5 nM,124 nM,35.1 nM,345 nM,
UGCAUGGUAGGAUAUACGGAGCAUUAGGGUUUGUUGUGUGGACAUGAGGAUCACCCAUGUAGAAGGGCCGUGCU [JL-ex2-2.17 mat747 mod] (puzzle: Exclusion 2),,,,,,apparent KD of MS2 coat protein (MS2 coat protein; [4]): 35.5 nM
"CUGAGGUAGCGGUCCUAUGACAUGAGGAUCACCCAUGUACCUUGCUUUGAGCAAUUUGCUCGUCUUAUGAUUCUCGG [Mat - Sensor v3 - turn-off var 1 - JL Mod - D46] (puzzle: Sensor v3, turn-off variant 1)",,,,,,"apparent KD of MS2 coat protein (MS2 coat protein; Eterna round: R95, input ligand: FMN 200 uM): 446 nM; apparent KD of MS2 coat protein (MS2 coat protein; [4]): 468 nM; apparent KD of MS2 coat protein (MS2 coat protein; Eterna round: R95, input ligand: none): 533 nM"
"UUGGUGUCAGGAUAUGCUUAAUAUAUUUUAUUAUAAUAUAUACAUGAGGAUCACCCAUGUAGAAGGGACAUUGU [LRO-Excl2-07-Fireball XL5] (Eterna round: R97, puzzle: Exclusion 2)",,,,,,apparent KD of MS2 coat protein (MS2 coat protein; input ligand: FMN 200 uM): 30.2 nM; apparent KD of MS2 coat protein (MS2 coat protein; input ligand: none): 45.8 nM
"UGCCUUUGAGGAUAUACGUAGAAAUAGAUUCAUGUAAAACUACAUGAGGAUCACCCAUGUAGAAGGCAAGGGCU [Mat - Exclusion 2 - JL Mod - D48] (Eterna round: R97, puzzle: Exclusion 2)",,,,,,apparent KD of MS2 coat protein (MS2 coat protein; input ligand: FMN 200 uM): 164 nM; apparent KD of MS2 coat protein (MS2 coat protein; input ligand: none): 24 nM
"UCUUAUUGAGGAUAUACAGAUUAUUACAUGAGGAUCACCCAUGUUCUUCAAUGUAUAUAUGUAGAAGGCAGAGGAU [Mat - Exclusion 5 - JL Mod - D12] (Eterna round: R97, puzzle: Exclusion 5)",,,,,,apparent KD of MS2 coat protein (MS2 coat protein; input ligand: FMN 200 uM): 217 nM; apparent KD of MS2 coat protein (MS2 coat protein; input ligand: none): 68.6 nM

Sequence,apparent KD of K4 kissing-loop reporter ([1]; input ligand: FMN 200 uM),apparent KD of K4 kissing-loop reporter ([1]; input ligand: arginine 13.2 mM),apparent KD of K4 kissing-loop reporter ([1]; input ligand: none),"apparent KD of K4 kissing-loop reporter [1, 2]","apparent KD of K4 kissing-loop reporter [1, 3]",other results
"UUCGGCGCAGGAUAUACAGUUUUGUGUUGAAUCGGCGCGAAACAUGAGGAUCACCCAUGUAGAAGGGUGUUGAA [-24.2, -22.3 kcal, A 27%] (Eterna round: R97, puzzle: Exclusion 2)",,,,,,apparent KD of MS2 coat protein (MS2 coat protein; input ligand: FMN 200 uM): 736 nM; apparent KD of MS2 coat protein (MS2 coat protein; input ligand: none): 1220 nM
GCUUGUAGAGGAUAUACAAGGGCCUUAGCGAAUAACACCGCACAUGAGGAUCACCCAUGUAGAAGGCUACCACC [Tezausesti] (puzzle: Exclusion 2),,,,,,apparent KD of MS2 coat protein (MS2 coat protein; [4]): 15.2 nM
CGAUGUUAUGUCAGGAUAUGCAUUGCGAAAGCAAUGCAGAAGGGACAUGAGGAUCACCCAUGUCCUAACCAUCG [Omei A 4] (puzzle: Brourd's mod of Exclusion 4),,,,,,apparent KD of MS2 coat protein (MS2 coat protein; [4]): 11.1 nM
CAACUGCAUGUGAGGAUAUGCACCGGCCAAGCCGGGCAGAAGGCACAUGAGGAUCACCCAUGUCAUCCUAUUGC [Esusgeraon] (puzzle: Brourd's mod of Exclusion 4),,,,,,apparent KD of MS2 coat protein (MS2 coat protein; [4]): 12.4 nM
"GUCUAGCGAGGAUAUUGCAGACGAAACAUGAGGAUCACCCAUGUGGCCUUGUGCCGUGUGCAAGAAGGCGCGAGGC [Gelelaor] (Eterna round: R97, puzzle: Exclusion 5)",,,,,,apparent KD of MS2 coat protein (MS2 coat protein; input ligand: FMN 200 uM): 297 nM; apparent KD of MS2 coat protein (MS2 coat protein; input ligand: none): 268 nM
UACUACGCAGGAUAUACAUGAGGAUCACCCAUGUGUCUGCGAUAGGCACGUGAUAUCCGUAGAAGGGUGUAGAU [Exclusion 3 - Oddities v.1] (puzzle: Exclusion 3),,,,,,apparent KD of MS2 coat protein (MS2 coat protein; [4]): 30.7 nM
"UACAUGAGGAUCACCCAUGUUUUGUCGUGUAUGGUAUUUAUCUAGGAUAUCAUUUUAUUUGGUUAUGAGAAGGAGAAUAUUAAU [JMF's solution 92] (Eterna round: R96, puzzle: Exclusion NG 3)",,,,,,apparent KD of MS2 coat protein (MS2 coat protein; input ligand: FMN 200 uM): 24.1 nM; apparent KD of MS2 coat protein (MS2 coat protein; [5]): 22.7 nM; apparent KD of MS2 coat protein (MS2 coat protein; input ligand: none): 30.5 nM
"GCGAUGUGAGGAUAUACAAGGUGUGAGAGUGCUUGAACGUAACAUGAGGAUCACCCAUGUAGAAGGUAUGUGAU [Eternabot (L1) Solution 29] (Eterna round: R97, puzzle: Exclusion 2)",,,,,,apparent KD of MS2 coat protein (MS2 coat protein; input ligand: FMN 200 uM): 109 nM; apparent KD of MS2 coat protein (MS2 coat protein; input ligand: none): 181 nM
GUGUACAGAGGAUAUACUUGAAUCUAGCGAAGCUAGGUUCGACAUGAGGAUCACCCAUGUAGAAGGCUGUACAC [Dot plot directed A v2] (puzzle: Exclusion 2),,,,,,apparent KD of MS2 coat protein (MS2 coat protein; [4]): 12.4 nM
"GCUGUCACCGUUAGGAUAUGUGAUUAAAUAUGAUCGCAGAAGGAACAUGAGGAUCACCCAUGUCGAUCCGUCCG [Eternabot (L1) Solution 36] (Eterna round: R97, puzzle: Brourd's mod of Exclusion 4)",,,,,,apparent KD of MS2 coat protein (MS2 coat protein; input ligand: FMN 200 uM): 34.8 nM; apparent KD of MS2 coat protein (MS2 coat protein; input ligand: none): 23.1 nM
CCCUCACAUGAGGAUCACCCAUGUCAGGAUAUCUCACAUCGGCCUUAGGCCGAUGUCUAGAGAAGGGACGUAUC [Ceonte] (puzzle: Exclusion 1),,,,,,apparent KD of MS2 coat protein (MS2 coat protein; [4]): 22.9 nM
AACUCACAUGAGGAUCACCCAUGUGAGGAUAUGAUACUAUGUACUUCGGUACAUAGUAUCAGAAGGCAUGUGGA [Ex1-3: 90] (puzzle: Exclusion 1),,,,,,apparent KD of MS2 coat protein (MS2 coat protein; [4]): 12.9 nM
AAGGAACAUGAGGAUCACCCAUGUGAGGAUAUGUGAGAAGGAUUUGAGAAGGAGAGGGACAGAAGGCACUAGGA [JR_Exclu1_Sub081] (puzzle: Exclusion 1),,,,,,apparent KD of MS2 coat protein (MS2 coat protein; [4]): 34.7 nM
"ACAUGAGGAUCACCCAUGUAAUGAUGGGUACUAUAUUAUUCGUAGGAUAUCGUUGUUAGUUUGUUCGAGAAGGACGUUUGCCUU [JR_ExcNG3_Sub055] (Eterna round: R96, puzzle: Exclusion NG 3)",,,,,,apparent KD of MS2 coat protein (MS2 coat protein; [5]): 824 nM
"CUCAUGCCUGAGGAUAUGCUGUACAAAAGUACUGCAGAAGGCGGGACAUGAGGAUCACCCAUGUGGCGAAAGCC [Omei Ex G8] (Eterna round: R97, puzzle: Exclusion 6)",,,,,,apparent KD of MS2 coat protein (MS2 coat protein; input ligand: FMN 200 uM): 78.7 nM; apparent KD of MS2 coat protein (MS2 coat protein; input ligand: none): 519 nM
"AGCUGUGGCCAAGGAUAUCUAGCCUUAAAUACCGACGUAUAGUCGGACAUGAGGAUCACCCAUGUGGAGAAGGUGGUCUCAGCA [Eli eng2 - 044] (Eterna round: R96, puzzle: Exclusion NG 2)",,,,,,apparent KD of MS2 coat protein (MS2 coat protein; input ligand: FMN 200 uM): 82 nM; apparent KD of MS2 coat protein (MS2 coat protein; [5]): 53 nM; apparent KD of MS2 coat protein (MS2 coat protein; input ligand: none): 74.3 nM
"CCUAGUGUCGGAGGAUAUCCUACACAAACCUUAGGAGAAGGCCGACAUGAGGAUCACCCAUGUAAAACCUAAACCUAAAAUCAA [Raesusbi] (Eterna round: R96, puzzle: Exclusion NG 1)",,,,,,apparent KD of MS2 coat protein (MS2 coat protein; input ligand: FMN 200 uM): 48.9 nM; apparent KD of MS2 coat protein (MS2 coat protein; [5]): 12.8 nM; apparent KD of MS2 coat protein (MS2 coat protein; input ligand: none): 15.2 nM
UCCUAACAUGAGGAUCACCCAUGUCAGGAUAUGAUACUAUGUACUUCGGUACAUAGUAUCAGAAGGGACAUCCU [Ex1-3: 9] (puzzle: Exclusion 1),,,,,,apparent KD of MS2 coat protein (MS2 coat protein; [4]): 14.7 nM
